From patent US20250018014A1, “METHOD FOR TREATING AND/OR PREVENTING REGNASE-1-RELATED DISEASE” (OSAKA UNIVERSITY, priority 2018, published 2025) come the findings set out here.

Like-named read-outs stand apart in the source and are kept apart here. Positions of bridges follow the written chain, without caps; N, C: chain ends. Non-standard residues stand in square brackets, D forms with d. *: point of attachment. NMeA = CN[C@@H](C)C(=O)O; Pyrrolidide = C1CCN(*)C1; dNMeA = CN[C@H](C)C(=O)O

Experiment in all cases: cell-based or functional assay
Experiment [1] has as its target T1, full-length human Regnase-1 with a FLAG tag on the N-terminal side and a biotin ligase BirA recognition … (human, UniProt Q5D1E8 1-599, biotinylated at the BirA recognition sequence when required).
T1 sequence: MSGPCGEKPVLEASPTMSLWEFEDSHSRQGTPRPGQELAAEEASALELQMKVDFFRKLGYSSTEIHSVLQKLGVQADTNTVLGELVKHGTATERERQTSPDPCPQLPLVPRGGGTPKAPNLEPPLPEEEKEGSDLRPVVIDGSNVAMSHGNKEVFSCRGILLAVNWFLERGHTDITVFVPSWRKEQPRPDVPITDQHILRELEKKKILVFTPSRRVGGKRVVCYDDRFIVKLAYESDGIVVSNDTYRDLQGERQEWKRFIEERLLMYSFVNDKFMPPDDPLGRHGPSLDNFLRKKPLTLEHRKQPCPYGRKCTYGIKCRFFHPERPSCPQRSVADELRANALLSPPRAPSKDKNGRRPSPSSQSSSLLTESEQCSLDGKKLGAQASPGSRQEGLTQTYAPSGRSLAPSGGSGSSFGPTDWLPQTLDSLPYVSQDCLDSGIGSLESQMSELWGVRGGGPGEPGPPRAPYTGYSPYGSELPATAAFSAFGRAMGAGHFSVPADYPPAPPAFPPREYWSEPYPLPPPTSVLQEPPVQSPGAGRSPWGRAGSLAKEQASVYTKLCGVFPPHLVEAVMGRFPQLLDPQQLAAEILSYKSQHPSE

Experiment [2] concerns the target T2, C-terminal domain-deleted human Regnase-1 (amino acids 1 to 546) with N-terminal FLAG tag and C-terminal BirA … (human, UniProt Q5D1E8 1-546).
T2 sequence: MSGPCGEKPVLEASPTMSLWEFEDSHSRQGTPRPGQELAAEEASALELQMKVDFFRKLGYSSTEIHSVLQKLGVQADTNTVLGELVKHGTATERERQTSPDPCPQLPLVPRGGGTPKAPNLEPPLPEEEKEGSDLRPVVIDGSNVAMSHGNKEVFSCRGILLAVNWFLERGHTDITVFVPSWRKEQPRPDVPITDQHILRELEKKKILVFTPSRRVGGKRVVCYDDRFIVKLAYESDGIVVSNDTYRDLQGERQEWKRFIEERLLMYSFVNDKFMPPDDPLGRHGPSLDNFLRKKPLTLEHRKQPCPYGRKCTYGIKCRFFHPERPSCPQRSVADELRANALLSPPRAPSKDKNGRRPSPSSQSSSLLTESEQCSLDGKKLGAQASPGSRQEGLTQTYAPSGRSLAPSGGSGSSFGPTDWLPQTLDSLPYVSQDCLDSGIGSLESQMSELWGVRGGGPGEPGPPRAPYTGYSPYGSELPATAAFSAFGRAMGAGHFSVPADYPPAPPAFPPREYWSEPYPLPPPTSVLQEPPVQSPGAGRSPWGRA

The target in experiment [3] is T1, full-length human Regnase-1 with a FLAG …. This is another data set of the same source.
In experiment [4] the target is T3, C-terminal human Regnase-1 (amino acids 301 to 599) with N-terminal FLAG tag and C-terminal BirA recognition … (human, UniProt Q5D1E8 301-599).
T3 sequence: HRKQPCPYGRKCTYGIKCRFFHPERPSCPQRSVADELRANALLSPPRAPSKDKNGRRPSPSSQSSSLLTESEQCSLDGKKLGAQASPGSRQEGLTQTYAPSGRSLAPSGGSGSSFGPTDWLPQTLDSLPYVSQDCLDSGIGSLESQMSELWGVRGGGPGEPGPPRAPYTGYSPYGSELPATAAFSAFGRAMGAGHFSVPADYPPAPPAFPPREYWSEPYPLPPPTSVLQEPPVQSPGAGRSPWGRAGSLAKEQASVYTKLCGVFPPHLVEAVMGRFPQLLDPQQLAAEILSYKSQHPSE

Experiment [5] addresses T2, C-terminal domain-deleted human …. This is another data set of the same source.
The target of experiment [6] is T1, full-length human Regnase-1 with a FLAG …. The source holds these as a separate data set.
The target of experiment [7] is T3, C-terminal human Regnase-1 (amino acids …). This is another data set of the same source.
In experiment [8] the target is T2, C-terminal domain-deleted human …. This is another data set of the same source.

Consider [dNMeA]KHASAWYRIWD-Pyrrolidide (lactam N-12) [PP3], for which the “50% inhibition concentration, Regnase-1 phosphorylation by IKKβ (AlphaScreen)” value was 4.6 µM in experiment [1]; 8.3 µM in experiment [2]; 4.6 µM in experiment [3]; 6.8 µM in experiment [4]; 8.3 µM in experiment [5]. Moreover, the “50% inhibition concentration, Regnase-1 phosphorylation by TBK1 (AlphaScreen)” value in experiment [1] came to 3.9 µM; in experiment [2], 5.7 µM; in experiment [6] it was 3.9 µM; in experiment [7] it was 7.1 µM; in experiment [8], 5.7 µM.

B1: PP5 (peptide)
peptide: XHSNAWYNIWD
HELM: PEPTIDE1{[meA].H.S.N.A.W.Y.N.I.W.D.[C1CCN([*:1])C1]}$PEPTIDE1,PEPTIDE1,1:R1-11:R3$$$V2.0
SMILES: CC[C@H](C)[C@@H]1NC(=O)[C@H](CC(N)=O)NC(=O)[C@H](Cc2ccc(O)cc2)NC(=O)[C@H](Cc2c[nH]c3ccccc23)NC(=O)[C@H](C)NC(=O)[C@H](CC(N)=O)NC(=O)[C@H](CO)NC(=O)[C@H](Cc2c[nH]cn2)NC(=O)[C@H](C)N(C)C(=O)C[C@@H](C(=O)N2CCCC2)NC(=O)[C@H](Cc2c[nH]c3ccccc23)NC1=O
For the molecule B1, the “50% inhibition concentration, Regnase-1 phosphorylation by IKKβ (AlphaScreen)” value in experiment [1] turned out to be 23.6 µM; in experiment [2], 20.4 µM; in experiment [3], 23.6 µM; in experiment [4], 31.3 µM; in experiment [5] it was 20.4 µM. For the same molecule, the “50% inhibition concentration, Regnase-1 phosphorylation by TBK1 (AlphaScreen)” value in experiment [1] is 24.2 µM; in experiment [2] it was 19.1 µM; in experiment [6], 24.2 µM; in experiment [7], 40.4 µM; in experiment [8], 19.1 µM.

B2: PP2 (peptide)
peptide: XGYANSWYNIWD
HELM: PEPTIDE1{[meA].G.Y.A.N.S.W.Y.N.I.W.D.[C1CCN([*:1])C1]}$PEPTIDE1,PEPTIDE1,1:R1-12:R3$$$V2.0
SMILES: CC[C@H](C)[C@@H]1NC(=O)[C@H](CC(N)=O)NC(=O)[C@H](Cc2ccc(O)cc2)NC(=O)[C@H](Cc2c[nH]c3ccccc23)NC(=O)[C@H](CO)NC(=O)[C@H](CC(N)=O)NC(=O)[C@H](C)NC(=O)[C@H](Cc2ccc(O)cc2)NC(=O)CNC(=O)[C@H](C)N(C)C(=O)C[C@@H](C(=O)N2CCCC2)NC(=O)[C@H](Cc2c[nH]c3ccccc23)NC1=O
In the case of B2, the “50% inhibition concentration, Regnase-1 phosphorylation by IKKβ (AlphaScreen)” value in experiment [1] came out at 16.6 µM; in experiment [2], 14 µM; in experiment [3] it was 16.6 µM; in experiment [4] it was 18.5 µM; in experiment [5], 14 µM. Moreover, the “50% inhibition concentration, Regnase-1 phosphorylation by TBK1 (AlphaScreen)” value in experiment [1] was found to be 21.7 µM; in experiment [2], 17.6 µM; in experiment [6], 21.7 µM; in experiment [7], 22.4 µM; in experiment [8], 17.6 µM.

For [NMeA]YIWDFFGDLD-Pyrrolidide (lactam N-11) [PP4], the “50% inhibition concentration, Regnase-1 phosphorylation by IKKβ (AlphaScreen)” value in experiment [1] was determined as 19.5 µM; in experiment [2], 8.3 µM; in experiment [3] it was 19.5 µM; in experiment [4], 12.8 µM; in experiment [5], 8.3 µM. The “50% inhibition concentration, Regnase-1 phosphorylation by TBK1 (AlphaScreen)” value was found to be 61.9 µM in experiment [1]; 44.9 µM in experiment [2]; 61.9 µM in experiment [6]; 35.9 µM in experiment [7]; 44.9 µM in experiment [8].

B3: PP1 (peptide)
peptide: XTSWYKVNWGQD
HELM: PEPTIDE1{[meA].T.S.W.Y.K.V.N.W.G.Q.D.[C1CCN([*:1])C1]}$PEPTIDE1,PEPTIDE1,1:R1-12:R3$$$V2.0
SMILES: CC(C)[C@@H]1NC(=O)[C@H](CCCCN)NC(=O)[C@H](Cc2ccc(O)cc2)NC(=O)[C@H](Cc2c[nH]c3ccccc23)NC(=O)[C@H](CO)NC(=O)[C@H]([C@@H](C)O)NC(=O)[C@H](C)N(C)C(=O)C[C@@H](C(=O)N2CCCC2)NC(=O)[C@H](CCC(N)=O)NC(=O)CNC(=O)[C@H](Cc2c[nH]c3ccccc23)NC(=O)[C@H](CC(N)=O)NC1=O
B3: the “50% inhibition concentration, Regnase-1 phosphorylation by IKKβ (AlphaScreen)” value in experiment [1] was 28.1 µM; in experiment [2], over 62.1 µM; in experiment [3], 28.1 µM; in experiment [4] it was over 62.1 µM; in experiment [5], over 62.1 µM. For the same molecule, the “50% inhibition concentration, Regnase-1 phosphorylation by TBK1 (AlphaScreen)” value was 54.5 µM in experiment [1]; over 62.1 µM in experiment [2]; 54.5 µM in experiment [6]; over 62.1 µM in experiment [7]; over 62.1 µM in experiment [8].
